In the RNAGym collection of RNA variant scans (doi:10.7554/elife.80360):

B1: HDV Ribozyme (parent)
chain: GGCCGGCAUGGUCCCAGCCUCCUCGCUGGCGCCGGCUGGGCAACAUUCCGAGGGGACCGUCCCCUCGGUAAUGGCGAAUGGGACCCA

Variants of: B1
Test: self-cleavage, relative activity (ratio to wild type); higher = more cleavage; co-transcriptional

Row | Variant | self-cleavage
1 | C19A U79C | 0.107
2 | C21A C32A | 0.17
3 | C19A G74C | 0.125
4 | C36G U46A | 0.415
5 | G35U A56U | 0.62
6 | A8G C30A | 0.237
7 | C32A G55A | 0.145
8 | C7G A78C | 0.175
9 | G28C C66G | 0.13
10 | C24G U47A | 0.106
11 | C7G U9A | 0.237
12 | A8C A43C | 0.185
13 | C44G C75G | 0.256
14 | U12A G73C | 0.314
15 | C26A A42G | 0.665
16 | C64A G74C | 0.242
17 | G59U A78C | 0.113
18 | G1C G82C | 0.0504
19 | C13G G29U | 0.0415
20 | A51C C75G | 0.415
21 | G5C C13A | 0.0755

Row | Variant | self-cleavage
22 | A77G A78C | 0.172
23 | C22U C44U | 0.249
24 | G29A C58G | 0.271
25 | G6U A56C | 0.665
26 | A8U A77G | 0.779
27 | U9A G50U | 1.31
28 | C48U A70U | 1.07
29 | A8C G28U | 0.0978
30 | C44U A45C | 0.739
31 | C13U C66G | 0.589
32 | C36A A43U | 0.198
33 | A16C C66A | 0.718
34 | C24U U47A | 0.658
35 | C32A G40U | 0.22
36 | C33U U79C | 0.325
37 | G6A C36U | 0.286
38 | U23C G52U | 1.11
39 | C19G G53U | 0.0542
40 | A16C | 0.838
41 | G1U A16G | 0.256
42 | C22A G55A | 0.284

Row | Variant | self-cleavage
43 | G25C G40A | 0.0386
44 | C36A A87U | 0.0587
45 | G35C G67U | 0.133
46 | G52U G82A | 0.277
47 | C66A U69G | 0.755
48 | C14G G67C | 0.554
49 | G38A A78C | 0.138
50 | G81U A87C | 0.444
51 | C18G C64A | 0
52 | G53A A77G | 0.916
53 | G6U C86G | 0.467
54 | U9C C86G | 1.14
55 | U60G C63U | 0.982
56 | G2U C30U | 0.025
57 | C57U G81A | 0.415
58 | A78C A87U | 0.199
59 | G54C C85U | 0.892
60 | A16G C85U | 0.969
61 | A16U C61U | 1.04
62 | C4G U9G | 0.293
63 | C21U U60A | 0.237

Row | Variant | self-cleavage
64 | C61U C64A | 0.89
65 | C33U C64U | 0.785
66 | C36A A42U | 0.122
67 | C61U C66A | 0.722
68 | G54A G67C | 0.591
69 | G68A G81C | 0.175
70 | C30U A51C | 0.594
71 | G2C U23G | 0.0268
72 | G5C C36A | 0.0489
73 | G73C A77C | 0.287
74 | C41U C61U | 0.946
75 | G11C C18A | 0.0804
76 | G38U U60G | 0.13
77 | G2A C49A | 0.122
78 | G1C A42C | 0.0639
79 | G5C U37A | 0.104
80 | U37A A56G | 0.107
81 | C3G A45C | 0.113
82 | C3G A45U | 0.299
83 | A42U C63G | 0.504
